Test results published in patent publication US20240391954A1, “MC4R AGONIST PEPTIDES” (The Regents of the University of Michigan, priority 2021, published 2024).
“And” between values parts separate entries of the source, which are not always exact repeats. Identical values can stand only once. Like-named read-outs stand apart in the source and are kept apart here. Starred links: 1 amine or outer side, 2 acyl side, 3 side chain; linkers in the order of their positions; H or OH if unused. Positions of bridges follow the written chain, without caps; N, C: chain ends. Non-standard residues stand in square brackets, D forms with d. dTyr(O-Me) = O-methyl-D-tyrosine, COc1ccc(C[C@@H](N[*:1])C(=O)[*:2])cc1; dPhe(4-Br) = N[C@H](Cc1ccc(Br)cc1)C(=O)O; dPhe(4-F) = N[C@H](Cc1ccc(F)cc1)C(=O)O; Cit = NC(=O)NCCC[C@H](N)C(=O)O; Nle = CCCC[C@H](N)C(=O)O; Aib = CC(C)(N)C(=O)O

Key:
[1] = Mouse plasma stability; format: in vitro ADME; conditions: pooled mouse plasma, 37° C.
Protocol: FIG. 3. Results of plasma stability testing for control peptides. Compounds shown were incubated in mouse plasma at 37° C. at 1 μM concentrations. 40 ul aliquots were removed at the times indicated and the reactions stopped with the addition of 160 μL cold acetonitrile containing 200 ng/ml of peptide internal standard (IS). The incubation solution was centrifuged at 3500 rpm for 10 minutes to precipitate protein. LC/MS/MS analysis was used to determine the % peptide remaining.
Pooled mouse plasma was prepared and stored at −80° C, prior to use, 396 μL mouse plasma was incubated at 37° C. for 5 minutes in 1.5 mL microcentrifuge tubes. 4 μL of 100 μM test or control compound/peptide was added to each tube and incubated for 0.5, 15, 30, 60, 120, or 240 minutes. An aliquot of 40 μL of each reaction was stopped by the addition of 4 volume of cold acetonitrile containing 200 ng/mL of […] solution was centrifuged at 3500 rpm for 10 minutes to precipitate protein. The supernatant was used for LC/MS/MS analysis. The natural log peak area ratio (compound peak area/internal standard peak area) was plotted against time and the gradient of the line determined.

[2] = Plasma protein binding (Centrifree ultrafiltration); format: in vitro ADME
Protocol: Solutions of test compound in DMSO were prepared at 1 mM, 100 uM and 10 uM, 5 ul of each solution of test compound was added to 495 uL plasma, and incubated at 25° C. for 5 min. Sample was added to a Centrifree® device, then centrifuged at 2000× g for 20 min to obtain desired filtrate volume. Initial plasma samples and ultrafiltrates were subjected to LC-MS/MS. % Free peptide=(concentration of ultrafiltrates/concentration of plasma)×100%. % Bound=100%−% Free

[3] = Pharmacokinetics: plasma and brain concentration after IP injection; format: in vivo, mouse; conditions: for Brain concentration, individual mice 1-3 / Plasma concentration, individual mice 1-3: individual animals, listed as setmelanotide
Protocol: FIG. 5. Pharmacokinetic data for an exemplary peptide relative to setmelanotide. Peptides at 1.5 mg/mL in PBS containing 10% DMSO and 10% PEG-400 were given by IP injection (15 mg/kg) to female CD-1 mice (n=15). At the given time points (0.5 h, 2 h, 4 h, 7 h and 24 h), brain samples were taken out and frozen at −80° C. immediately for later preparation and analysis, and blood samples were collected using heparinized calibrated pipettes. Blood samples were centrifuged at 15000 rpm for 10 min. Subsequently, blood plasma was collected from the upper layer. The plasma was frozen at −80° C. for later analysis. Peptide concentrations at times indicated were determined by LC MS/MS, using non-zero standards in blank Plasma and Brain Samples.
The drug at 1.5 mg/mL in PBS containing 10% DMSO and 10% PEG-400 was given by IP injection (15 mg/kg). At the given time points (0.5 h, 2 h, 4 h, 7 h and 24 h), brain samples were taken out and frozen at −80° C. immediately for later preparation and analysis, and blood samples were collected using heparinized calibrated pipettes. Blood samples were centrifuged at 15000 rpm for 10 min. Subsequently, blood plasma was collected from the upper layer. The plasma was frozen at −80° C. for later analysis.
The analytical curves were constructed using non-zero standards in the blank Plasma and Brain Samples. A blank sample (matrix sample processed without internal standard) was used to exclude contamination. The linear regression analysis of CTX1227/setmelanotide were performed by plotting the peak area ratio (y) against the CTX1227/setmelanotide concentration (x) in ng/mL, respectively.

[4] = target: T1, human MC3R (human, UniProt P41968 1-323); experiment: cell-based or functional assay
[5] = target: T2, human MC4R receptor (human, UniProt P32245 1-332); experiment: cell-based or functional assay
[6] = target: T2, human MC4R receptor; experiment: cell-based or functional assay; remark: listed apart in the source
[7] = target: plasma protein; experiment: plasma ultrafiltration (Centrifree), LC-MS/MS; peptide 0.1 uM
[8] = target: plasma protein; experiment: plasma ultrafiltration (Centrifree), LC-MS/MS; peptide 1.0 uM
[9] = target: plasma protein; experiment: plasma ultrafiltration (Centrifree), LC-MS/MS; peptide 10.0 uM
[10] = target: T1, human MC3R; experiment: cell-based or functional assay; remark: listed apart in the source
[11] = target: T2, human MC4R receptor; experiment: cell-based or functional assay; remark: listed apart in the source
[12] = target: T2, human MC4R receptor; experiment: cell-based or functional assay; remark: listed apart in the source

T2 sequence (P32245 whole entry): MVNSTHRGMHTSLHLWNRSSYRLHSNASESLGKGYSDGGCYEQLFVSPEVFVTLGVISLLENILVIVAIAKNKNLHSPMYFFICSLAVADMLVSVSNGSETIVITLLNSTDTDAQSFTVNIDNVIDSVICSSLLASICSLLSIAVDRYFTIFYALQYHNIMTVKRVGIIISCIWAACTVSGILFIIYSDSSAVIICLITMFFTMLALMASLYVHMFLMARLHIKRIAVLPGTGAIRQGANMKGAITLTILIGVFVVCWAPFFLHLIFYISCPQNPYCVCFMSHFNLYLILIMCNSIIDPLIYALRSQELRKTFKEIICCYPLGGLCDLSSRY
T1 sequence (P41968 whole entry): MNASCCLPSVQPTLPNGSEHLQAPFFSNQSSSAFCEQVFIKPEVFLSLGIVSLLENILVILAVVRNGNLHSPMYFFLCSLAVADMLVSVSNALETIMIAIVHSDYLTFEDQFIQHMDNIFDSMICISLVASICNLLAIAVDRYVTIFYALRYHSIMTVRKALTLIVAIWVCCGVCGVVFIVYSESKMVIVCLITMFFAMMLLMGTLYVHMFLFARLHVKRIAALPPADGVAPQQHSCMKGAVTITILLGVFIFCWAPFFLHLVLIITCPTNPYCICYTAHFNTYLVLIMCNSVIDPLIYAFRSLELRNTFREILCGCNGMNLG

CC(=O)N[C@@H](CCCN=C(N)N)C(=O)N[C@H]1CSSC[C@H](C(N)=O)NC(=O)[C@H](Cc2c[nH]c3ccccc23)NC(=O)C(CCCN=C(N)N)NC(=O)[C@@H](Cc2ccccc2)NC(=O)[C@H](Cc2cnc[nH]2)NC(=O)[C@@H](C)NC1=O (stereo partly drawn) [CTX-1200, Arg-cyclo(Cys-D-Ala-His-D-Phe-Arg-Trp-Cys), reference compound]
half-life at 1 µM [1]: > 3 h
fraction unbound at 5 min, 0.1 µM ([2]; 0.1 uM): 0.57
fraction unbound at 5 min, 1 µM ([2]; 1.0 uM): 0.43
fraction unbound at 5 min, 10 µM ([2]; 10.0 uM): 0.39
Brain concentration, individual mice 1-3 ([3]; IP 15 mg/kg, 0.5 h, brain, 15 mg/kg): 306.5 ng/g and 231.5 ng/g and 247.5 ng/g
Plasma concentration, individual mice 1-3 ([3]; IP 15 mg/kg, 0.5 h, plasma, 15 mg/kg): 67000 ng/mL and 37200 ng/mL and 25800 ng/mL
Brain concentration, individual mice 1-3 ([3]; IP 15 mg/kg, 2 h, brain, 15 mg/kg): 207.5 ng/g and 121.5 ng/g and 220.5 ng/g
Plasma concentration, individual mice 1-3 ([3]; IP 15 mg/kg, 2 h, plasma, 15 mg/kg): 7190 ng/mL and 11000 ng/mL and 4580 ng/mL
Brain concentration, individual mice 1-3 ([3]; IP 15 mg/kg, 4 h, brain, 15 mg/kg): BLQ
Plasma concentration, individual mice 1-3 ([3]; IP 15 mg/kg, 4 h, plasma, 15 mg/kg): 455 ng/mL and 9590 ng/mL and 17.8 ng/mL
Brain concentration, individual mice 1-3 ([3]; IP 15 mg/kg, 7 h, brain, 15 mg/kg): BlQ and BLQ (2×)
Plasma concentration, individual mice 1-3 ([3]; IP 15 mg/kg, 7 h, plasma, 15 mg/kg): 64.2 ng/mL and 69.3 ng/mL and 55.3 ng/mL
Brain concentration, individual mice 1-3 ([3]; IP 15 mg/kg, 24 h, brain, 15 mg/kg): BlQ and BLQ (2×)
Plasma concentration, individual mice 1-3 ([3]; IP 15 mg/kg, 24 h, plasma, 15 mg/kg): 8.04 ng/mL and 7.37 ng/mL and 8.81 ng/mL
tissue level at time at 0.5 h ([3]; female, CD-1, mouse, brain, ip, 15 mg/kg, mice, 0.5 h, mean of 3): 262 ng/g
tissue level at time at 2 h ([3]; female, CD-1, mouse, brain, ip, 15 mg/kg, mice, 2 h, mean of 3): 183 ng/g
level at 0.5 h ([3]; female, CD-1, mouse, mice, IP 15 mg/kg, 0.5 h, plasma, mean of 3): 43300 ng/mL
level at 2 h ([3]; female, CD-1, mouse, mice, IP 15 mg/kg, 2 h, plasma, mean of 3): 7590 ng/mL
level at 4 h ([3]; female, CD-1, mouse, mice, IP 15 mg/kg, 4 h, plasma, mean of 3): 3350 ng/mL
level at 7 h ([3]; female, CD-1, mouse, mice, IP 15 mg/kg, 7 h, plasma, mean of 3): 62.9 ng/mL
level at 24 h ([3]; female, CD-1, mouse, mice, IP 15 mg/kg, 24 h, plasma, mean of 3, read-out: Plasma concentration, Mean): 8.07 ng/mL

B1: CTX-1227 (peptide)
peptide: Ac-R[Nle]CH[dF]RWC-NH2
modifications: disulfide 3-8
SMILES: CCCC[C@H](NC(=O)[C@H](CCCNC(=N)N)NC(C)=O)C(=O)N[C@H]1CSSC[C@@H](C(N)=O)NC(=O)[C@H](Cc2c[nH]c3ccccc23)NC(=O)[C@H](CCCNC(=N)N)NC(=O)[C@@H](Cc2ccccc2)NC(=O)[C@H](Cc2c[nH]cn2)NC1=O
% max activation [4]: 96%
cAMP EC50 [4]: 2.8 nM
% max activation [5]: 103%
cAMP EC50 [5]: 0.3 nM
MC4R selectivity vs MC1R [6]: 0.92
MC4R selectivity vs MC3R [6]: 11
Protein Binding (%) [7]: 50%
Protein Binding (%) [8]: 47%
Protein Binding (%) [9]: 54%

B2: CTX-1211 (peptide)
peptide: Ac-RC[dA]R[dF]RWC-NH2
modifications: disulfide 2-8
SMILES: CC(=O)N[C@@H](CCCNC(=N)N)C(=O)N[C@H]1CSSC[C@@H](C(N)=O)NC(=O)[C@H](Cc2c[nH]c3ccccc23)NC(=O)[C@H](CCCNC(=N)N)NC(=O)[C@@H](Cc2ccccc2)NC(=O)[C@H](CCCNC(=N)N)NC(=O)[C@@H](C)NC1=O
% max activation [4]: 91%
cAMP EC50 [4]: 2.1 nM
% max activation [5]: 96%
cAMP EC50 [5]: 0.38 nM
MC4R selectivity vs MC1R [6]: 3.12
MC4R selectivity vs MC3R [6]: 5.49
Protein Binding (%) [7]: 51%
Protein Binding (%) [8]: 63%
Protein Binding (%) [9]: 61%

Ac-RCAR[dF]R[dW]C-NH2 (disulfide 2-8) [CTX-1268]
% max activation [4]: 44%
cAMP EC50 [4]: 211 nM
% max activation [5]: 96%
cAMP EC50 [5]: 7 nM
MC4R selectivity vs MC1R [6]: 6.59
MC4R selectivity vs MC3R [6]: 30
Protein Binding (%) [7]: 52%
Protein Binding (%) [8]: 58%
Protein Binding (%) [9]: 62%

B3: CTX-1246 (peptide)
peptide: Ac-RC[Aib]R[dPhe(4-Br)]R[dW]C-NH2
modifications: disulfide 2-8
SMILES: CC(=O)N[C@@H](CCCNC(=N)N)C(=O)N[C@H]1CSSC[C@@H](C(N)=O)NC(=O)[C@@H](Cc2c[nH]c3ccccc23)NC(=O)[C@H](CCCNC(=N)N)NC(=O)[C@@H](Cc2ccc(Br)cc2)NC(=O)[C@H](CCCNC(=N)N)NC(=O)C(C)(C)NC1=O
% max activation [10]: 21%
Protein Binding (%) [7]: 73%
Protein Binding (%) [8]: 44%
Protein Binding (%) [9]: 43%

Ac-RC[dA]R[dPhe(4-F)]R[dW]C-NH2 (disulfide 2-8) [CTX-1236]
% max activation [10]: 66%
cAMP EC50 [10]: 2.6 nM
% max activation [11]: 97%
cAMP EC50 [11]: 1.9 nM
MC4R selectivity vs MC1R [12]: 2.01
MC4R selectivity vs MC3R [12]: 1.36
Protein Binding (%) [7]: 45%
Protein Binding (%) [8]: 49%
Protein Binding (%) [9]: 51%

B4: CTX-1228 (peptide)
peptide: Ac-R[Nle]CR[dF]RWC-NH2
modifications: disulfide 3-8
SMILES: CCCC[C@H](NC(=O)[C@H](CCCNC(=N)N)NC(C)=O)C(=O)N[C@H]1CSSC[C@@H](C(N)=O)NC(=O)[C@H](Cc2c[nH]c3ccccc23)NC(=O)[C@H](CCCNC(=N)N)NC(=O)[C@@H](Cc2ccccc2)NC(=O)[C@H](CCCNC(=N)N)NC1=O
% max activation [4]: 93%
cAMP EC50 [4]: 1.6 nM
% max activation [5]: 102%
cAMP EC50 [5]: 0.2 nM
MC4R selectivity vs MC1R [6]: 3.16
MC4R selectivity vs MC3R [6]: 8.38
Protein Binding (%) [7]: 37%
Protein Binding (%) [8]: 39%
Protein Binding (%) [9]: 39%

B5: CTX-1238 (peptide)
peptide: Ac-RC[dA]R[dTyr(O-Me)]R[dW]C-NH2
modifications: disulfide 2-8
SMILES: COc1ccc(C[C@H]2NC(=O)[C@H](CCCNC(=N)N)NC(=O)[C@@H](C)NC(=O)[C@@H](NC(=O)[C@H](CCCNC(=N)N)NC(C)=O)CSSC[C@@H](C(N)=O)NC(=O)[C@@H](Cc3c[nH]c4ccccc34)NC(=O)[C@H](CCCNC(=N)N)NC2=O)cc1
% max activation [10]: 21%
cAMP EC50 [10]: 3 nM
% max activation [11]: 79%
cAMP EC50 [11]: 6.2 nM
MC4R selectivity vs MC1R [12]: 0.44
MC4R selectivity vs MC3R [12]: 0.49
Protein Binding (%) [7]: 53%
Protein Binding (%) [8]: 47%
Protein Binding (%) [9]: 41%

Ac-RC[dA][Cit][dF]RWC-NH2 (disulfide 2-8) [CTX-1285]
% max activation [4]: 28%
cAMP EC50 [4]: 4.9 nM
% max activation [5]: 94%
cAMP EC50 [5]: 1.7 nM
MC4R selectivity vs MC1R [6]: 134
MC4R selectivity vs MC3R [6]: 2.9
Protein Binding (%) [7]: 45%
Protein Binding (%) [8]: 39%
Protein Binding (%) [9]: 41%
